Reference: the nanobody polyreactivity screen of Harvey et al. (2022)

Experiment: yeast display, Sf9 membrane polyspecificity reagent, FACS + sequencing; frameworks hold sequencing errors
Summary of the method: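 After 36–48 hours of galactose induction, yeast (Saccharomyces cerevisiae BJ5465) displaying a synthetic nanobody library were stained at 4 °C for 1 hour with 10% biotinylated, detergent-solubilized Sf9 membrane reagent. Streptavidin microbeads enriched the stained cells before FACS sorting into low and high (top ~1%) gates on anti-HA and streptavidin fluorescence. Each clone's polyreactivity label reflects its gate of origin.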

Row | Sequence | polyreactivity (PSR sort gate)
1 | QVQLVESGGGLVQAGGSLRLSCAGSGFTFGYYAMGWSRPAPGKERELVAAMSWNGGRTYYADSVKGRFTISRDNAKNTVYLQLNSLKPEDTAVYSCAADYRFYSPTKYSYDDWGQGTQVTVSS | high polyreactivity
2 | QVQLVQSGGRLVQAGGSLRLSCAASGLIFVHYTMGWYRQAPGKERELVASINSGGSTNYADSVKGRFTISRDNAKNTVYLQMISLKPEDTAVYYCADRRVVFWRRMYYWGQGTQVTVSS | high polyreactivity
3 | QVQLVESGGGLVHAGGSLRLSCAASGRTIGYYAMGWYRQAPGKERELVAAISWSGGSTYYADSVKGRFTISRDIAKNTVYLQMNSLKPEATAVYYCAAKYSFRAAHYYYWGQGTQVTVSS | high polyreactivity
4 | HVQLVESGGGLVQAGGSLRLSCPASGRTFADNAMGWYRQAPGKERELVASISSGTSTNYADSVKGRFTISRDNAQNTVYVQMNSLKPEDTAVYYCNADGPIWYTAVLGVGRYYGWTDYWGQGTQVTVSS | low polyreactivity
5 | QVQLVESGGGLGQAGASLRLSCAASGLTFRYYALGWYRQAPGKLMELVAAISSRGASTYYADSVKGRITISRDNAKNTVYLQMTSLKPEDTAVYYCAARYTGKYEREYNYWGQGTQVTVSS | high polyreactivity
6 | QVQLVESGGGLVQAGGSLRLSCAASGSTFQFYAMGWYRQAPGKEREFVAAITTRSGSTYYADSVKGRFTISRDTAKNTVYLQMNSQKPEDTAVYYCAAYIYGHSSDSVRYEYWGQGTQVTVSS | low polyreactivity
7 | QVQLVESVGGLVQAGGSLRLSCAASGFIFFFYAMGWYRQAPGKERELVAAISDGVSTYYADSVKGRFTISSDNAKNTVYLQMNSLKPEDTAVYYCAVSRGDEPEFDYWGQGTQVTVSS | low polyreactivity
8 | QVQIVESGGGLVQAAGSLRLSCAASGSTFQTYAMGWYRQAPGKERELVAAITSGGSTNYADSVKGRFTISRDNAKNTVYLQMNSLKPEDTAVSYCAVRQIYQTSDHRLQYDYWGQGTQVTVSS | low polyreactivity
9 | QVQLVESGGGLVQAGGSLRLRCAASGTTFRLYAMGWYRQAPGKERELVAAISWIGGRTYYADSVKGRFTISRDNAKNTVYLQMNSLKPEDTAVYYCAATCAYRVARGYDYWGQGTQVTVSS | high polyreactivity
10 | QVQLVESGGCLVQAGGSLRLSCAASGRTLHYYAMGWYIPAPGKVRELVARINWSGGSTYYADSVKGRFTISRDNAKKTVYLQMNSLKPEDTAVYYCAARKNRAYGYWGQGTQVTVSS | high polyreactivity
11 | QVQLVESGGGLVQAGGSLRLSCAASGGIFAYNAMGWYRQAPGKERELVASISSGGNTYYADSVKGRFTISRDNAKNTVYLQMNSLKPEDTAVYYCNARFYRSWRRFSREPGYNYWGQGTQVTVSS | high polyreactivity
12 | QVQRVESGGGLVQAGGSLRLSCADSGTYGSYAMGWYRQAPGTEREFVAAISASGGSTYYADSVKGRFTISRDNAKNTVYLQMNSLKPEDTAVYYCNKSPRRNRQYDYWGQGSQVTVSS | high polyreactivity
13 | QVQLVESGGGLVQAGGSLRLSCAASGITFEYYAMGWYRPAPGKERELVAAIDTGGSTNYADSVKGRFTISRDNAKNTVYLQMNSLKPEDTAVYSCAADWSWWDGEDDHFEYDYWGQGTQVTVSS | low polyreactivity
14 | QVQLVESGGGLVQAGGSLRLSCAASGFTFANYAMGWYRQAPGKERELVAAITRTAGSTYYADSVKGRFTISRDNAKNTVYLQMNSLKPEDTAVYYCAVEGIYRWYDYSWYYTSTYDYWGQGTQVTVSS | low polyreactivity
15 | QVQLVESGGGLGQAGGSLRLSCAASGIIFVENAMGWNRQAPGKERELVATITSGDTTNYADSVKGRFTISRDNAKNTVYLQMNSLKPEDTAVYYCKKVVPDDAYIFAYDYWGQGTQVTVSS | low polyreactivity
16 | QVQLVESGGGLVQAGGSLRLSCAASGITFSNYSMGWYRQAPGKERELVAAISKRGGSTYYADSVKGRFTISRDNAKNTVYLQMNSLKPEDTAVYNCAAAGVRVYVRSGLDYWGQGTQVTVSS | high polyreactivity
17 | QVQLVESGGGLVQAGGSLRLSCAASGNTFGFYAMGWYRQAPGKERELVAGITSGDSTYYADSVKGRFTISRDNAKNTVYLQMNSLKPEDTAVYYCATAPYVTSRRYGPYEYWGQGTQGTVSS | low polyreactivity
18 | QVQLVESGGGLVQAGGSLRLSCAASGSTFARNAMGWYRQAPGKERELVAAISSGGTTNYADSVKGRFTISRDNAKNTVYLQMNSLKPEDTAVYYCNAGFRNVLTSGYLYDYWGQGTQVTVSS | low polyreactivity
19 | QVQLVESGGGLVQAGGSLRLICAASGRIFYAYAMGWYRQAPGKERELVATITYGGGSTYYADSVKGRFTISRDNAKNTVYLQMNSLKPEDTAVYYCAAVRTGSTLYTIRYYYWGQGTQVTVSS | low polyreactivity
20 | QVQLVESGGGLVQAGGSLRLSCAASGLTFYGYVMGWYRQAPGKERELVASISRSGGRTYYADSVKGRFTISRDNAKNTVYLQMNSLKPEDTAVYYCAAADQVGQEDDYWGQGTQVTVSS | low polyreactivity
21 | QVQLVESGGGLVQAGGSLRLSCAASGSIFEGYAMGWYRQAPGKERELVAAISWSSARTYYADSVKGRFTISRDNAKNTVYLQMNSLKPEDTAVYYCNAVARNNRNSRQRIPYDYWGQGTQVTVSS | high polyreactivity
22 | QVQLVESGGGLVQAGGSLRLSCAASGSIFPVYTMGWYRQAPGKEREFVATITISGAITYYADSVKGRFTISRDNAKNSVYLQMNSLKPEDTAVYYCNTGPISYPANDYWGQGTQVTVSS | low polyreactivity
23 | QVQIVESGGGLVQAGGSHRISCAASGLIFQSNAMGWYRQAPGKESELVAAISTAGSTNYADSVKGRFTISRDNAKNTFYFQMNSLIPQDTAVYYFAAQVSTPYRYPRQMLYDSWGQGTQVTVSS | low polyreactivity
24 | QVQLVESGGGLGQAGGSLRLSCAASGRTFYYYTMGWYRPAPGKERELVAAITHGGSTYYADSVKGRFTISRDNAQNTVYLQMNSLKPEDTAVYSCTAVYHYPYEYWGQGTQVTVSS | high polyreactivity
25 | QVQLVESGGGLVQAGGSLRLSCAASGITFYDNDMGWYRQAPGKERELVAGITGTTVGTYYADSVKGRFTISRDYAKNTVYLQMNSLKPEDTAVYYCAATSLAGYYQFDYWGQGTQVTVSS | low polyreactivity
26 | QVQLVESGGGLVQAGGSLRLSCAASGRIFNSNTMGWYRQAPGKERELVAAITYSGGSTYYADSVKGRFTISRDNAKNTVYLQMNSLKPEDTAVYYCAADFWEYDGPWYANDYDSWGQGTQVTVSS | low polyreactivity
27 | QDQLVESGGGLVQAGCSLRLTCAASGSTFTSNAMGWYRQAPGKERYLVASISGSVGRTYYADSVKGRFTISRDNAKNTVYLQMNSLKPEDTAVYYCNDESRNLYSTQFDYWGQGTQVTVSS | low polyreactivity
28 | QVQLVESGGGLVQAGGSLRLSCAASGRTFGYNALGWYRQAPGKERELVAAITRGGITHYADSVKGRFTISRDNAKNTVYIQKNSLKPEDTAGYYCAKRGPYYTDDEYYWGQGTQVTVSS | low polyreactivity
29 | QVQLVESGGGLVQAGGSLRLSCAASGYTFESYTMGWYRQAPGKEREFVAVISSSDTSTSYADSVKGRFTISRDNAKNTVYLQMNSLKPEDTAVYYCAAYSSPYYITYYWYNYDYWGQGTQVTVSS | low polyreactivity
30 | QVQLVESGGGLVQAGGSLRLSCAASGSTFDKYAMGWYRQAPGKERELVAVISGSGGRTYYADSVKGRFTISRDNAKNTVYLQMNSLKPEDTAVYYCAARGSFKKGYWGQGTQVTVSS | high polyreactivity
